The nature of this data set: label from the status in PepcDB records.
Consider “MTQIARISDTGTERRLQAERLIGAKALQEAQALRFNVFSGEFNAKLKGAELGLDMDDYDVHCSHIGVRDLNTGRLVATTRLLDHQAANSLGRFYSEEEFSLHGLVQLKGPILEIGRTCVDPAYRNGGTIAVLWGELAEVLNQGGYSYLMGCASIPMQDGGVQAQAIMQRLRERYLCTEHLRAEPKNPLPSLDIPSNVIAEMPPLLKAYMRLGAKICGEPCWDEDFQVADVFILLKRDELCPRYARHFKAAV”, for which the protein production result is recorded as “failed”. For the sequence “MTQKVALIGFGGVAQGFIQILRERGEELPEHIQVVSITDWRRGAVHDPNGLDLDFIAKIIETDGTFEHYPERSGVIKGWNSFETIQQTNADTIVEVTFTDVLTGQPAIDHCKEALRLGKHVVTTNKGPIAVAYQELKELADANGVQLLYEGTVMSGTPALRLPEHTLIGNNIQEVKGILNGTTNYILTEMERGKTFEQALQDAQTLGYAEADPTSDVEGYDVLYKVVILANVMMGIPLKPSDVERVGISHLTPRDIKDAHSAGERWKLIGRVKKEGERTMATVRPERLPLTDPLANINGAINAITYECDISGPITLIGAGAGVKETGFALLIDLLHVNRLGE”, the protein production entry is given as “failed”.

Regarding “MTQLDTWLANTKPLIPVIVIDDLVHAIPMAKALVAGGVHLLEVTLRTEAGLAAISAIKKAVPEAIVGAGTVCTADDFQKAIDAGAQFIVSPGLTPELIEKAKQVKLDGQWQGVFLPGVATASEVMIAAQAGITQLKCFPASAIGGAKLLKAWSGPFPDIQFCPTGGISKDNYKEYLGLPNVICAGGSWLTESKLLIEGDWNEVTRRASEIVKLSDI”, the protein production entry is listed as “not failed”.

Turning to “MTQLELLLERIIDRVNVNLRHQKFDVGDYVRRQTPHLHYSKFYAFYGLSADDPVHFHFKNSSLAGSYLLGRVNVLHSALYKSDIRGDELKRKGQHFVCDGKMIPLHDDEVITIKDSFLNKTLVHSNSHDPESPEEFTIRNTVAMPYANIHGSLTEGSFIGSFATVDLSTIHNSVVRYFSYVQTGELVGKCVEPGQIWIKSGDELEFHYSFDKAILDKYISQEAGSCPTGVLMEFVEVRQEDFEEVFASGHMASGAGSASGASVSGYAVIKGDTVIGENVLVSQRAYLDNAWMGKGSNAQENCYIINSRLERNCVTAHGGKIINAHLGDMIFTGFNSFLQGSESSPLKIGDGCVVMPHTIIDLEEPLEIPAGHLVWGYIRNKADLAAHSISFEEFAKVDGEVTMGRMTFRGKGGPFLDSFKKRIKRILSENGAFFDGSEGTGHAQKGKNFTFNIIQPYQDGDPRGMYPTILIQPNNGS”, the protein production result is reported as “not failed”. With “MTQQTDLQSKTNIDPLAMNDSFLAAADALAVDPMFGIPANVREVIARRGNATRLVILGTKGFGAHLMNVRHERPCEVIAAVDDFRYHSGELYYGLPIISTDRFTELATHDRDLVALNTCRYDGPKRFFDQICRTHGIPHLNFEQAVRAFGLQGNVDYRVDDWGADIVRNIPAFQTLAQRLADDYSVQTLYAVLNFHLTCEPEYYHEVERPYSTLYFRSGLLRFSDSEKMVDCGASIGESLAGLIGVTKGKFERVWMIEPDRINLQTLQNVLRRYTDTNFASRITVHGCGAGENTIRVPFNHEGGHGGFVKPADADHEPADLIDVRPIDDIIDDAPTFIKMDIEGSELSALKGARRAISEHKPKLAISAYHRSTDLLDLTNYILSIRPDYQIGLRHHTPDRWDTCLYFY” the entry was “not failed”; with “MTQRRAMLILHGKQSLNEDVRDAVADKRKQGWELDVRLTWEAGDAQRLVNEALAAGHRHIVAGGGDGTLRDIAEALALAATKASLTILPLGTANDFARAAGVPLDVSKALQLMDVAPRAVDLGEVGGKLFLNMATGGFGSQVTANTSEDLKKVLGGAAYLFTGLTRFSELHAAHGELTGPDFHWRGDLLALGIGNGRQAGGGHELCPTALADDGLLDISILPAPQEVVGTLRSLLEGGLGIDNMFIRARLPWVELKSAQGLDINLDGEPLSGEDLRFVARPGALQVHLPANSPVLGSTPLLNRPD”, “not failed”; with “MTQSLFDFSAYFKFFIGLFALVNPVGIIPVFISMTSYQPAAVRNKTNLTANLSVAIILLTSLFLGDGILQIFGISIDSFRIAGGILVVTIAMSMISGKLGEDKQNKQEKSETAVRESIGVVPLALPLMAGPGAISSTIVWGTRYHSWVHLVGFSLAIAVFALCCWGIFRMAPWLVRLLGQTGINVITRIMGLLLMALGIEFIVTGIKALFPGLLS”, “failed”. Regarding “MTQSPDITAKSWAMVATLGFVWGGTFLINELALEGITPFWLAAGRVCFGALLSTLVWRAMGGRLFSAPLSGSERLSLVIIALLSSAVPFSLIAWGQQYVTAGFTGVSMASIALMVLPLAHFFVPGERMTWRRALGFAIGFAGVALLMGAQAFESSGAALELPGRLACLAATACYAVASILMRRLPAVDPMGLSTVLLLIGVVAVLPMAWIAEGPPPSTDLRTLGLIVFLGMVPTAAANLLRVTLIRSAGPVFMSLTNYQVPIWSVLLGAALLGEPLPPVLLWSLLLILGGVGLSQYGALRRLFTRQ”, the protein production entry is given as “failed”.

For the sequence “MTQTQSLALYTVAILVGALTGGSLPLLGRVGRSDIGLSFSAGVMLGAAFFHMLPEAVEESGAGILPFVLVGFLLLFLLERFVLVHVCAEPGPNARLSQAAPLPAGIEAGHGHDHHHHGHAHVATGGALALEDDGTGCAVHTTLGLAAFLGMSAHTLVDGFALGAASGQAELGLLVFLAILAHKIPNSFSLSAILRAEGYSRGRALAMNAVFALMVPVGAGIYLVLRELVRVETFTAAALAASAGTFLHLSLSDILPDLHRRGGSKWVLSGALLAGLAVMWGLRALNHAH”, the protein production entry is listed as “failed”. With “MTQTVKLDILSDPICPWCYIGKTQLDKALAAIPDHPFVIEWHPFQLNPDMAPEGMDRREYLERKFGGKEGAVRAYAPVVEHAEKAGLAIDFEAMQRTPNTLDAHRLIHWAGVEGKQTEAVDALFAAYFTEGRDIGDAEVLADIADSIGMDAAVVLKLLKSDADRDDIAKRDSHSREMGVSSVPTFIVANQHAVPGAQPPELWEQVIREIMSQIETTSA” the entry was “not failed”. With “MTQWASWKQAIVSLAMLVSFSLFGQQNVQTPPEVVQARFIGNETCIDCHQVEVEAWQGSHHDMAMRHADSESVLGNFDNQAVEHQGKANRFYRKGDEYWVNIQGPDGQWHDYKISYTFGWVPLQQYMVEFDDGRIQLIPFAWDSRSVEQGGQRWFHLYPDTTTTDEFYWTNTGQNWNFMCADCHSTNLKKNYDAQSNTYQTTWSEINVSCEACHGPASLHVEMAKQAKQNGMPIATANHYGFSRDLSAAVKEWVYKEGHSTLQPKDIVPTNQVQTCAQCHSRRTQLNEEADHVKGAFLDKYRLSLITPELYYHDGQIYDEDYVYGSFLQSAMAEKGVTCTNCHDPHSAQLKIPEEAVCAQCHVASDYLPENHTFHQANTEASKCTTCHMPETTYMQVDPRRDHSWHVPRPDLSKHINTPNVCTACHDDKDAKWADEQIGQWFPKSKYRNTQHFSVAFYADAIGHRGGSDALAYTAQDSSISDIIRASALERMAGNTGQNTLVALARAVKHENEMIRLGAVAGSAGYDFSDRWQILQPLLSDPVLSVRTEAAAALVSHYGEMNPLQRERIQKPLDEYMDIQRFNADRGFGRTNLANVYRSLGEASKAIELYQQAIDIEPYFENSYVNLADMYRRQGDEAKAVQILNAGMKAQPKSSSLPYSAGLALLRQGNSKQANQYLKQAAESAKDNAQYWYVYGLALEKSDVLEASKALNKAFEVGGDPRHLYAQCEVLARNYRQGGVAFAFEQCTKQLGAHAPEEVIQQLKATVTTKK” the entry was “failed”. With “MTRAKDRLSAVQVKQSPAGKYADGGGLWLVKSSKDTGKWVLRAVVHGRRREMGLGSVSDVGLAEARKSADKWRTVVRAGGDPIKERARQKREAARNLHLLKHVAEDCFDAIKGNLRGQGKAGRWFSPLELHVLPKLGKVPVADLDQVDIRDTLKPLRDTKFETMRKALNRLDMVVRHAAALGLDVDTQVVDKAKALIGASQHKAVNIPAMPWHEVPGFYQSLSVGSVTHLALRLLILTGVRSRPLRFLRVDHIAGDVWTIPADMMKGREGATGDFRVPLSKEALAVIEQAKRHARDGFLFPSLRRGVVSDMTLSRYMERRKLTARPHGFRSSLRDWLAECTDAPHEVAETVLGHKVGGAVERAYRRTDFIDQRAKLMERWADHCKVVQLVSAV” the entry was “failed”; with “MTRDLAPALQALSPLLGSWAGRGAGKYPTIRPFEYLEEVVFAHVGKPFLTYTQQTRAVADGKPLHSETGYLRVCRPGCVELVLAHPSGITEIEVGTYSVTGDVIELELSTRADGSIGLAPTAKEVTALDRSYRIDGDELSYSLQMRAVGQPLQDHLAAVLHRQR”, “not failed”.

For the origin of these results see a protein production outcome set (Wang et al. 2014).
